Experimental data reported in the Immune Epitope Database (IEDB).

Experiments:
HLA-B*44:02 = test: IEDB peptide-MHC binding, purified MHC/direct/fluorescence; filed as Kd, often an IC50 or EC50 that approximates it; ≥ and ≤ were set here for values at or beyond the usual limits of such assays
HLA-A*11:01 = test: as above
HLA-B*27:05 = test: as above
HLA-B*46:01 = test: as above; settings: source organism: West Nile virus
HLA-A*29:02 [1] = test: as above; settings: source organism: West Nile virus
HLA-A*03:01 [2] = test: as above
HLA-B*40:01 = test: as above
HLA-B*15:09 = test: as above; settings: source organism: West Nile virus
HLA-A*69:01 = test: as above
HLA-A*31:01 [3] = test: as above
HLA-B*15:01 = test: as above
HLA-B*57:01 = test: as above
HLA-A*01:01 = test: as above
HLA-B*58:01 = test: as above
HLA-A*02:01 = test: as above
HLA-B*07:02 = test: as above
HLA-B*18:01 = test: as above; settings: source organism: West Nile virus
HLA-B*48:01 = test: as above; settings: source organism: West Nile virus
HLA-B*39:01 = test: as above; settings: source organism: West Nile virus
HLA-A*31:01 [4] = test: IEDB peptide-MHC binding, purified MHC/competitive/fluorescence; filed as Kd, often an IC50 or EC50 that approximates it; ≥ and ≤ were set here for values at or beyond the usual limits of such assays
HLA-B*08:01 = test: IEDB peptide-MHC binding, purified MHC/direct/fluorescence; filed as Kd, often an IC50 or EC50 that approximates it; ≥ and ≤ were set here for values at or beyond the usual limits of such assays
HLA-B*35:01 = test: as above
HLA-A*26:01 = test: as above
HLA-B*15:17 = test: as above; settings: source organism: Giardia lamblia ATCC 50803
HLA-A*29:02 [5] = test: IEDB peptide-MHC binding, purified MHC/competitive/fluorescence; filed as Kd, often an IC50 or EC50 that approximates it; ≥ and ≤ were set here for values at or beyond the usual limits of such assays; settings: source organism: Cryptosporidium parvum Iowa II
HLA-A*03:01 [6] = test: as above; settings: source organism: Influenza A virus (A/nt/60/1968(H3N2))
HLA-A*24:03 = test: IEDB peptide-MHC binding, purified MHC/direct/fluorescence; filed as Kd, often an IC50 or EC50 that approximates it; ≥ and ≤ were set here for values at or beyond the usual limits of such assays; settings: source organism: Pasteurella multocida
[7] = source organism: West Nile virus
[8] = source organism: Francisella tularensis subsp. holarctica LVS
[9] = source organism: Vibrio cholerae
[10] = source organism: Vibrio parahaemolyticus
[11] = source organism: Mycobacterium tuberculosis
[12] = source organism: Giardia lamblia ATCC 50803
[13] = source organism: Listeria monocytogenes
[14] = source organism: Camelpox virus M-96
[15] = source organism: Campylobacter jejuni
[16] = source organism: Pasteurella multocida

AHYEEDVNL
Kd (HLA-B*44:02; [7]): ≥ 20 µM
Kd (HLA-A*11:01; [7]): ≥ 20 µM
Kd (HLA-B*27:05; [7]): ≥ 20 µM
Kd (HLA-B*46:01): ≥ 20 µM
Kd (HLA-A*29:02 [1]): ≥ 20 µM
Kd (HLA-A*03:01 [2]; [7]): ≥ 20 µM
Kd (HLA-B*40:01; [7]): ≥ 20 µM
Kd (HLA-B*15:09): 1.8 µM
Kd (HLA-A*69:01; [7]): ≥ 20 µM
Kd (HLA-A*31:01 [3]; [7]): ≥ 20 µM
Kd (HLA-B*15:01; [7]): ≥ 20 µM
Kd (HLA-B*57:01; [7]): ≥ 20 µM
Kd (HLA-A*01:01; [7]): ≥ 20 µM
Kd (HLA-B*58:01; [7]): ≥ 20 µM
Kd (HLA-A*02:01; [7]): ≥ 20 µM
Kd (HLA-B*07:02; [7]): ≥ 20 µM
Kd (HLA-B*18:01): ≥ 20 µM
Kd (HLA-B*48:01): ≥ 20 µM
Kd (HLA-B*39:01): 1.71 µM

AIYESNIGY
Kd (HLA-A*31:01 [4]; source organism: Francisella tularensis subsp. tularensis FSC198): ≥ 20 µM
Kd (HLA-A*11:01; [8]): 0.0151 µM
Kd (HLA-A*03:01 [2]; [8]): 0.0083 µM

EGIEGRIAY
Kd (HLA-B*44:02; [9]): ≥ 20 µM
Kd (HLA-A*11:01; [9]): ≥ 20 µM
Kd (HLA-B*08:01; [9]): ≥ 20 µM
Kd (HLA-B*27:05; [9]): ≥ 20 µM
Kd (HLA-A*03:01 [2]; [9]): ≥ 20 µM
Kd (HLA-B*35:01; [9]): 0.0159 µM
Kd (HLA-B*40:01; [9]): ≥ 20 µM
Kd (HLA-A*69:01; [9]): ≥ 20 µM
Kd (HLA-A*31:01 [3]; [9]): ≥ 20 µM
Kd (HLA-B*15:01; [9]): 0.306 µM
Kd (HLA-A*26:01; [9]): 0.00861 µM
Kd (HLA-A*01:01; [9]): ≥ 20 µM
Kd (HLA-B*58:01; [9]): ≥ 20 µM
Kd (HLA-A*02:01; [9]): ≥ 20 µM
Kd (HLA-B*07:02; [9]): ≥ 20 µM

EVDEGSDMM
Kd (HLA-B*44:02; [10]): ≥ 20 µM
Kd (HLA-A*11:01; [10]): ≥ 20 µM
Kd (HLA-B*08:01; [10]): ≥ 20 µM
Kd (HLA-B*27:05; [10]): ≥ 20 µM
Kd (HLA-A*03:01 [2]; [10]): ≥ 20 µM
Kd (HLA-B*35:01; [10]): 0.254 µM
Kd (HLA-B*40:01; [10]): ≥ 20 µM
Kd (HLA-A*69:01; [10]): 0.141 µM
Kd (HLA-A*31:01 [3]; [10]): ≥ 20 µM
Kd (HLA-B*15:01; [10]): ≥ 20 µM
Kd (HLA-A*26:01; [10]): 4.43 µM
Kd (HLA-A*01:01; [10]): 4.3 µM
Kd (HLA-B*58:01; [10]): ≥ 20 µM
Kd (HLA-A*02:01; [10]): ≥ 20 µM
Kd (HLA-B*07:02; [10]): ≥ 20 µM

GTAPPPLTR
Kd (HLA-A*31:01 [4]; source organism: Mycobacterium tuberculosis variant bovis BCG str. Pasteur 1173P2): 0.00377 µM
Kd (HLA-A*11:01; [11]): 0.0204 µM
Kd (HLA-A*03:01 [2]; [11]): 0.32 µM

HSSVAGGLW
Kd (HLA-B*44:02; [12]): ≥ 20 µM
Kd (HLA-A*11:01; [12]): ≥ 20 µM
Kd (HLA-B*08:01; [12]): ≥ 20 µM
Kd (HLA-B*27:05; [12]): ≥ 20 µM
Kd (HLA-A*03:01 [2]; [12]): ≥ 20 µM
Kd (HLA-B*15:17): 0.0011 µM
Kd (HLA-B*35:01; [12]): 0.278 µM
Kd (HLA-B*40:01; [12]): ≥ 20 µM
Kd (HLA-A*69:01; [12]): ≥ 20 µM
Kd (HLA-A*31:01 [3]; [12]): ≥ 20 µM
Kd (HLA-B*15:01; [12]): ≥ 20 µM
Kd (HLA-B*57:01; [12]): 0.0535 µM
Kd (HLA-A*26:01; [12]): ≥ 20 µM
Kd (HLA-A*01:01; [12]): 0.59 µM
Kd (HLA-B*58:01; [12]): 0.00374 µM
Kd (HLA-A*02:01; [12]): ≥ 20 µM
Kd (HLA-B*07:02; [12]): ≥ 20 µM

LLARFGLEK
Kd (HLA-A*31:01 [4]; source organism: Listeria monocytogenes J0161): 1.4 µM
Kd (HLA-A*11:01; [13]): 0.0103 µM
Kd (HLA-A*03:01 [2]; [13]): 0.0141 µM

MMGIILSKY
Kd (HLA-A*29:02 [5]): 0.052 µM

MVGVGSLVK
Kd (HLA-A*31:01 [4]; [7]): ≥ 20 µM
Kd (HLA-A*11:01; [7]): 0.027 µM

SQEDNHFSL
Kd (HLA-B*44:02; [14]): ≥ 20 µM
Kd (HLA-A*11:01; [14]): ≥ 20 µM
Kd (HLA-B*08:01; [14]): ≥ 20 µM
Kd (HLA-B*27:05; [14]): ≥ 20 µM
Kd (HLA-A*03:01 [2]; [14]): ≥ 20 µM
Kd (HLA-B*35:01; source organism: Variola virus): 1.56 µM
Kd (HLA-B*40:01; source organism: Variola virus): 0.141 µM
Kd (HLA-A*69:01; [14]): ≥ 20 µM
Kd (HLA-A*31:01 [3]; [14]): ≥ 20 µM
Kd (HLA-B*15:01; source organism: Variola virus): 2.79 µM
Kd (HLA-A*26:01; [14]): ≥ 20 µM
Kd (HLA-A*01:01; [14]): ≥ 20 µM
Kd (HLA-B*58:01; [14]): ≥ 20 µM
Kd (HLA-A*02:01; [14]): ≥ 20 µM
Kd (HLA-B*07:02; [14]): ≥ 20 µM

TIHDRIPHR
Kd (HLA-A*03:01 [6]): 0.0619 µM
Kd (HLA-A*31:01 [4]; source organism: Influenza A virus (A/nt/60/1968(H3N2))): 0.0204 µM

TLYYLECKR
Kd (HLA-A*31:01 [4]; [15]): 0.0545 µM
Kd (HLA-A*03:01 [2]; [15]): ≥ 20 µM

TVHDRTPYR
Kd (HLA-A*31:01 [4]; source organism: Influenza A virus (A/Waikato/7/2000(H3N2))): ≥ 20 µM
Kd (HLA-A*03:01 [2]; source organism: Influenza A virus (A/SW/MN/3128/00(H1N2))): ≥ 20 µM

VMLDWGIEL
Kd (HLA-A*11:01; [16]): 3.03 µM
Kd (HLA-B*08:01; [16]): ≥ 20 µM
Kd (HLA-B*27:05; [16]): ≥ 20 µM
Kd (HLA-A*24:03): ≥ 20 µM
Kd (HLA-A*03:01 [2]; [16]): ≥ 20 µM
Kd (HLA-B*35:01; [16]): 0.297 µM
Kd (HLA-B*40:01; [16]): ≥ 20 µM
Kd (HLA-A*69:01; [16]): 0.599 µM
Kd (HLA-A*31:01 [3]; [16]): ≥ 20 µM
Kd (HLA-B*15:01; [16]): 0.267 µM
Kd (HLA-A*26:01; [16]): ≥ 20 µM
Kd (HLA-A*01:01; [16]): ≥ 20 µM
Kd (HLA-B*58:01; [16]): ≥ 20 µM
Kd (HLA-A*02:01; [16]): 0.00619 µM
Kd (HLA-B*07:02; [16]): 11.3 µM
